{"source": "paper PMC3159454", "target": "Elk-1 ETS domain (Elk-ets), recombinant", "experiment": "SEC", "data": [{"substance": "Elk-1 ETS domain (Elk-ets), recombinant (domain or fragment)", "values": [{"measurement": "stoichiometry N", "value": 2}]}]}
